The supplement of paper PMC10567573

B1: MMP1 (parent)
chain: YTPDLPRADVDHAIEKAFQLWSNV
B2: HDAC6 (parent)
chain: YVHHQALLDVKNIAHQNKFGEDMP

Variants of: B1
Test: protein stability index of a GFP-peptide fusion (GPS, HEK-293T) (PSI 1-6); higher = more stable
Conditions: c terminus: a fixed tail appended
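Further: lentivirally expressed fusions sorted by FACS into six bins by GFP to DsRed ratio, PSI derived from sequencing read proportions per bin multiplied by bin number.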

Protein stability index, by site and new letter:
D9: E 1.75, C 1.75, A 1.38
L5: M 2.12, V 2.89, F 2.64, Y 1.44, K 1.91, D 2.34, C 1.84, A 2.11, R 2.49, I 2.1, T 2.02, Q 2.07, S 2.05, E 2.16, H 2.2, P 1.81, G 1.32, N 1.92, W 2.17
R7: Y 1.08, K 2.12, D 1.79, S 1.75, L 1.42, I 1.5, M 2.25, F 2.09, P 1.81, W 1.79, G 1.91, C 2.01, E 1.94, A 2.3, N 1.64, V 2.12, T 1.88, Q 1.92, H 1.89
T2: W 2.16, C 1.93, Y 2.45, N 2.18, D 3.08, F 2.17, G 2.4, L 1.83, A 2.4, I 2.52, V 1.95, M 2.35, R 2.31, K 2.56, P 2.17, H 2.11, Q 1.74, E 3.6, S 1.95
A8: I 1.88, Q 1.57, G 2.83, P 1.51, N 1.41, T 1.79, L 2.03, V 1.64, E 2.67, F 2.94, W 1.87, R 1.67, K 2.58, Y 1.93, C 2.07, M 1.74, S 1.68, H 1.75, D 1.53
P3: K 2.01, H 1.79, S 2.36, Y 1.8, Q 2.96, D 3.37, M 1.88, F 2.3, I 1.92, W 2.87, R 2.49, G 1.62, N 2.5, A 1.79, T 1.84, L 1.62, V 2.13, E 2.66, C 1.54
D4: Y 3.17, H 2.28, M 2.23, R 2.52, P 1.99, T 3.69, A 1.75, I 2.75, N 2.56, F 2.54, E 1.4, C 1.69, Q 2.62, S 2.35, L 3.1, W 1.94, G 2.16, K 2.38, V 3.17
Y1: I 2.64, G 2.97, F 2.48, S 3.52, M 3.16, D 3.57, T 2.92, W 2.32, P 3.47, R 2.97, A 4.18, N 3.18, C 2.33, Q 3.08, E 3.53, L 2.87, K 3.32, V 3.19, H 3.43
P6: G 2.17, H 1.55, Q 2.03, K 2.12, V 2.12, A 1.56, N 1.8, S 2.55, D 2.01, L 1.32, I 2.09, F 1.82, E 1.83, T 1.78, R 1.78, W 2.06, Y 1.47, C 2.05, M 2.2

Variants of: B2
Test: as above
Conditions: c terminus: a fixed tail appended

Protein stability index: each site, then its substitutions
N17: M 1.59
Y1: D 4.81
H4: E 2.82, G 1.99
D22: A 1.67, M 1.68
L7: Y 2.53
F19: V 1.83
E21: F 2.54
N12: E 1.66
G20: H 2.19, M 2.35
